Measured values published in patent publication US20240010707A1 (BIOTEST, published 2024).

Target: T1, von Willebrand factor (UniProt P04275 764-2813, limits assumed)
T1 construct: also called vWF
Test: ELISA on coated vWF, bound FVIII detected with chromogenic Coatest SP FVIII reagents; reference value set by definition
Protocol: All other potencies were calculated in relation to ReFacto AF. […] However, the only significant difference could be detected between Nuwiq and FVIII-19M. The reduced binding, also of FVIII-6rs, might be due to different post-translational modifications made by the CAP-T cells. This could be correlated with the reduced sulfation detected in the heavy and light chain in the Western Blot. Missing sulfation might have influenced vWF binding, as especially the sulfation at Y1683 is important for the binding of vWF.
For the detection of the binding of the FVIII constructs to vWF, another ELISA was performed. In this case, vWF was coated to the wells of a 96-well plate at a concentration of 0.1 U/ml. Afterwards the FVIII variants were applied at a concentration of 0.25 U/ml. ReFacto AF was used as a reference. Each sample was furtheron diluted 1:2 in buffer. A total of 7 serial dilutions were performed. […] After addition of the substrate, the plate was immediately put into a plate reader and the development of the chromogenic substrate was measured at 405 nm for 490 seconds. The generated curves were analyzed using the PLA 3.0 software. Potencies of vWF-binding of the different FVIII products were calculated in relation to ReFacto AF.

B1: ReFacto AF (other)
chain: ATRRYYLGAVELSWDYMQSDLGELPVDARFPPRVPKSFPFNTSVVYKKTLFVEFTDHLFNIAKPRPPWMGLLGPTIQAEVYDTVVITLKNMASHPVSLHAVGVSYWKASEGAEYDDQTSQREKEDDKVFPGGSHTYVWQVLKENGPMASDPLCLTYSYLSHVDLVKDLNSGLIGALLVCREGSLAKEKTQTLHKFILLFAVFDEGKSWHSETKNSLMQDRDAASARAWPKMHTVNGYVNRSLPGLIGCHRKSVYWHVIGMGTTPEVHSIFLEGHTFLVRNHRQASLEISPITFLTAQTLLMDLGQFLLFCHISSHQHDGMEAYVKVDSCPEEPQLRMKNNEEAEDYDDDLTDSEMDVVRFDDDNSPSFIQIRSVAKKHPKTWVHYIAAEEEDWDYAPLVLAPDDRSYKSQYLNNGPQRIGRKYKKVRFMAYTDETFKTREAIQHESGILGPLLYGEVGDTLLIIFKNQASRPYNIYPHGITDVRPLYSRRLPKGVKHLKDFPILPGEIFKYKWTVTVEDGPTKSDPRCLTRYYSSFVNMERDLASGLIGPLLICYKESVDQRGNQIMSDKRNVILFSVFDENRSWYLTENIQRFLPNPAGVQLEDPEFQASNIMHSINGYVFDSLQLSVCLHEVAYWYILSIGAQTDFLSVFFSGYTFKHKMVYEDTLTLFPFSGETVFMSMENPGLWILGCHNSDFRNRGMTALLKVSSCDKNTGDYYEDSYEDISAYLLSKNNAIEPRSFSQNPPVLKRHQREITRTTLQSDQEEIDYDDTISVEMKKEDFDIYDEDENQSPRSFQKKTRHYFIAAVERLWDYGMSSSPHVLRNRAQSGSVPQFKKVVFQEFTDGSFTQPLYRGELNEHLGLLGPYIRAEVEDNIMVTFRNQASRPYSFYSSLISYEEDQRQGAEPRKNFVKPNETKTYFWKVQHHMAPTKDEFDCKAWAYFSDVDLEKDVHSGLIGPLLVCHTNTLNPAHGRQVTVQEFALFFTIFDETKSWYFTENMERNCRAPCNIQMEDPTFKENYRFHAINGYIMDTLPGLVMAQDQRIRWYLLSMGSNENIHSIHFSGHVFTVRKKEEYKMALYNLYPGVFETVEMLPSKAGIWRVECLIGEHLHAGMSTLFLVYSNKCQTPLGMASGHIRDFQITASGQYGQWAPKLARLHYSGSINAWSTKEPFSWIKVDLLAPMIIHGIKTQGARQKFSSLYISQFIIMYSLDGKKWQTYRGNSTGTLMVFFGNVDSSGIKHNIFNPPIIARYIRLHPTHYSIRSTLRMELMGCDLNSCSMPLGMESKAISDAQITASSYFTNMFATWSPSKARLHLQGRSNAWRPQVNNPKEWLQVDFQKTMKVTGVTTQGVKSLLTSMYVKEFLISSSQDGHQWTLFFQNGKVKVFQGNQDSFTPVVNSLDPPLLTRYLRIHPQSWVHQIALRMEVLGCEAQDLY
potency of binding to vWF (relative to ReFacto AF): 1 relative potency
